The source of these data is patent US8697648B2, “Protein agent for diabetes treatment and β cell imaging” (Georgia State University Research Foundation, Inc., priority 2009, dated 2014).

Where two headings read alike, the source gives them in different places. Bounds are passed on as bounds.

A short description of data set [1]: R1 and R2 relaxivity with a relaxometer. The conditions noted are these: 1.4 T. The format is physicochemical. How it is done:
To ensure that the fusion protein is applicable as a MRI contrast agent, the Gd^3+ binding property and R1/R2 relaxivity of the fusion protein were tested using well-known methods.

The conditions of data set [2]: cited from earlier work.
In data set [3] the test system is Diabetic mice (BKS.Cg-Lepr^db/db). The data set can be described thus: Blood glucose lowering in fed diabetic mice (Example 15). The format is in vivo. How it is done:
The animals were re-feed for 25 minutes 5 hours after drug administration and 35 minutes before the last time point of blood sample collection. The A Blood Glucose (mg/dl) was determined by calculating the difference between the measured blood glucose levels at any given time point and the initial blood glucose levels. The initial blood glucose levels were measured after feeding for 20 min and before the drug administration (time zero). The error bars represent standard deviations of measurements of eight mice.
The developed protein agent was tested to determine whether it had the in vivo capability of lowering blood glucose in diabetic subjects. Diabetic mice (BKS.Cg-Lepr^db/db, The Jackson Laboratory) were used as test subjects. A group of six animals first fasted for 6 hours. After fasting, the animals were fed for 30 minutes. The protein agent was administered after feeding by intraperitoneal injection at a dose of 25 nmole/kg. The animals were fed again for 30 mins, 5 hrs after agent administration. Blood samples were taken at different time points after administration of the agent. Glucose concentration in the blood samples was measured using a commercially available kit.

In another data set the test system is diabetic mice. The data set can be described thus: Blood glucose and glucose-dependent insulin secretion after co-administration with glucose (Example 16). The format is in vivo. The conditions noted are these: 25 nmole/kg agent with 15 mmole/kg glucose i.p. How it is done:
FIG. 12 is a pair of graphs showing the changes in Δ blood glucose (Upper panel) and Δ insulin (bottom panel) in a group of 8 diabetic mice at different time points after injection of 15 mmole/kg of glucose with 25 nmole/kg of different agents.
The effects of the developed agent on blood glucose lowering and stimulating of the glucose-dependent insulin secretion in diabetic mice were also examined. The animals first fasted for 6 hours. The protein agent (25 nmole/kg) and glucose (15 mmole/kg) were co-administrated via intraperitoneal injection with a group of eight diabetic mice. The blood glucose and insulin levels were measured at different time points. As controls, the same dose of glucose was administrated alone and co-administrated with the parental protein calbindin in separate groups of diabetic mice.

For data set [4] the following is noted: in vivo.
Another data set deals with CHO cells. The data set can be described thus: Immunostaining binding analysis, CHO cells (no GLP-1R). The conditions noted are these: Cal.GLP 10 μM, calbindin D9k 50 μM, 37° C., 30 mins. The format is cell-based. Here is the method: (§1) FIG. 10 is a series of digital images showing immunofluorescence staining of CHO or RINm5F cells that were treated by calbindin (50 μM) and Cal.GLP (10 μM). The cells were extensively washed after 30 min treatments under 37° C. in microscopic chamber slides and subsequently fixed. The cells were stained with the calbindin-specific antibody and visualized under confocal microscopy. The light shading represents antibody staining.
(§2) To examine whether the developed protein indeed interacted with GLP-1R, the binding of the fusion protein with two cell lines, RINm5F and CHO cells was examined. It is well known that GLP-1R is expressed in RINm5F but not in CHO cells. Both RINm5F and CHO cells were incubated with fusion protein Cal.GLP (10 μM) or calbindin D9k (50 μM) at 37° C. for 30 mins. After extensive washing, the cells were fixed and subjected to immunostaining analyses using a rabbit polyclonal antibody against parental protein calbindin D9k. […] Similar binding analyses were carried out with RINm5F cells and a […] (αTC1).

The target of the next data set is T1, GLP-1 receptor (Rattus norvegicus, UniProt P32301).
T1 construct: It is well known that GLP-1R is expressed in RINm5F but not in CHO cells; endogenous in cells; host or cells: RINm5F rat insulinoma cells
T1 sequence (P32301 22-463): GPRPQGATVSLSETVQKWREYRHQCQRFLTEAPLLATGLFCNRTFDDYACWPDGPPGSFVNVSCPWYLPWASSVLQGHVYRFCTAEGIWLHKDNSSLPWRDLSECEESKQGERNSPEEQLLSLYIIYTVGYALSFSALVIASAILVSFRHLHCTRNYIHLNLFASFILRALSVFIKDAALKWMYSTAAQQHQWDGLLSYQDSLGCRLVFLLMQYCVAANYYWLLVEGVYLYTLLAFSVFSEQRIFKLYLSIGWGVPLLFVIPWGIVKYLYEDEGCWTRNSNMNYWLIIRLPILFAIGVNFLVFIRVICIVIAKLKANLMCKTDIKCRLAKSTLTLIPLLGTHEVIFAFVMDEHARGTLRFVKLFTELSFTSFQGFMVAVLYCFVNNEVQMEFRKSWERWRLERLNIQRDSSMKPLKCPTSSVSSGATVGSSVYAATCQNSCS
The data set can be described thus: Cell-based intracellular cAMP assay (Lance cAMP 384 kit) in RINm5F cells. The conditions noted are these: concentration around 200 μM. In general terms: Changes in cAMP serve as a functional read-out for many G protein-coupled receptors.

The next data set has as its system RINm5F cells. The data set can be described thus: Immunostaining binding analysis, RINm5F cells (GLP-1R expressed). It counts as cell-based, rat. The following applies: Cal.GLP 10 μM, calbindin D9k 50 μM, 37° C., 30 mins. Here is the method:
as §1, §2

Procedure for GLP-1 receptor: The cells were harvested 30 minutes post treatments. Cell lysates were prepared from the harvested cells. The cAMP levels in the lysate were then measured and expressed as pmole values. The error bars represent standard deviations of four times of measurements.
A Lance cAMP 384® Kit (Perkin Elmer, Inc) was used to compare the incretin effects of fusion protein and PEGylated protein. Rat Insulinoma cells (RINm5F) were cultured with RPMI1640 with 10% FBS in 75 cm^2 cell culture flasks. Cells are harvested and washed three times with HBSS (Invitrogen Corp.) buffer. A series of 5 μl test protein and 5 μl cell suspension with 5000 cells in stimulation buffer (1×HBSS buffer with 5 mM HEPES, 0.1% BSA and 150 mM IBMX) and Alexa, biotin labeled cAMP antibodies were incubated at 37° C. for 15 mins in 384-well plate. […] A VICTOR^3 plated reader (PerkinElmer, Inc.) was used to detect the fluorescence signal at excitation 340 nm and emission 665 nm and 615 nm. The collected data was then analyzed with the equation of F=F665 nm/F615 nm. […]
The effects of the PEGylated proteins and unPEGylated protein in stimulating the cAMP production were examined in rat insulinoma β-cells RINm5F. The cAMP production was analyzed using a commercial cAMP kit (PerkinElmer).

Molecule `O=C(O)CN(CCN(CC(=O)O)CC(=O)O)CCN(CC(=O)O)CC(=O)O` (Gd complex, metal not drawn) [DTPA, reference compound] returned an R1 in data set [1] of 3.8 mM^−1S^−1.

Take `CC[C@H](C)[C@H](NC(=O)[C@H](Cc1ccccc1)NC(=O)[C@H](CCC(=O)O)NC(=O)[C@H](CCCCN)NC(=O)[C@H](C)NC(=O)[C@H](C)NC(=O)[C@H](CCC(N)=O)NC(=O)CNC(=O)[C@H](CCC(=O)O)NC(=O)[C@H](CC(C)C)NC(=O)[C@H](Cc1ccc(O)cc1)NC(=O)[C@H](CO)NC(=O)[C@H](CO)NC(=O)[C@@H](NC(=O)[C@H](CC(=O)O)NC(=O)[C@H](CO)NC(=O)[C@@H](NC(=O)[C@H](Cc1ccccc1)NC(=O)[C@@H](NC(=O)CNC(=O)[C@H](CCC(=O)O)NC(=O)[C@H](C)NC(=O)[C@@H](N)Cc1c[nH]cn1)[C@@H](C)O)[C@@H](C)O)C(C)C)C(=O)N[C@@H](C)C(=O)N[C@@H](Cc1c[nH]c2ccccc12)C(=O)N[C@@H](CC(C)C)C(=O)N[C@H](C(=O)N[C@@H](CCCCN)C(=O)NCC(=O)N[C@@H](CCCNC(=N)N)C(N)=O)C(C)C` [GLP-1 peptide]: in data set [2] (degradation by DPP-4), the circulation time entry is reported as “less than 2 minutes”.

Turning to `CCCCCCCCCCCCCCCC(=O)N[C@@H](CCC(=O)NCCCC[C@H](NC(=O)[C@H](C)NC(=O)[C@H](C)NC(=O)[C@H](CCC(N)=O)NC(=O)CNC(=O)[C@H](CCC(=O)O)NC(=O)[C@H](CC(C)C)NC(=O)[C@H](Cc1ccc(O)cc1)NC(=O)[C@H](CO)NC(=O)[C@H](CO)NC(=O)[C@@H](NC(=O)[C@H](CC(=O)O)NC(=O)[C@H](CO)NC(=O)[C@@H](NC(=O)[C@H](Cc1ccccc1)NC(=O)[C@@H](NC(=O)CNC(=O)[C@H](CCC(=O)O)NC(=O)[C@H](C)NC(=O)[C@@H](N)Cc1cnc[nH]1)[C@@H](C)O)[C@@H](C)O)C(C)C)C(=O)N[C@@H](CCC(=O)O)C(=O)N[C@@H](Cc1ccccc1)C(=O)N[C@H](C(=O)N[C@@H](C)C(=O)N[C@@H](Cc1c[nH]c2ccccc12)C(=O)N[C@@H](CC(C)C)C(=O)N[C@H](C(=O)N[C@@H](CCCNC(=N)N)C(=O)NCC(=O)N[C@@H](CCCNC(=N)N)C(=O)NCC(=O)O)C(C)C)[C@@H](C)CC)C(=O)O` [Liraglutide], the blood circulation time result in data set [2] (in vivo) is “more than 10 hr”.

As for Exendin 4 [reference compound], the “drop of blood glucose levels” value in data set [3] (25 nmole/kg i.p., within 30 minutes) is given as “about 189 mg/dl”. The “blood glucose levels after re-feed” value in data set [3] (6 hours post administration, one hour after re-feed) was “almost reached the same blood glucose levels before the drug treatments”. The “time of immediate insulin increase and glucose decrease” value in the data set on diabetic mice was at most 30 min.

B1: Cal.GLP/Q26D: Q26D variant of the Cal.GLP fusion protein; SEQ ID NO: 18 (protein)
chain: MSTKKSPEELKRIFEKYAAKEGDPDDLSKDELKLLIQAEFPCLLKGPNTLDDLFQELDKNGHAEGTFTSDVSSYLEGQAAKEFIAWLVKGR
In the case of B1, in data set [1], the R1 is listed as 20 mM^−1S^−1.

B2: calbindin: parental host protein human Calbindin D9k, negative control; SEQ ID NO: 13 (protein)
chain: MSTKKSPEELKRIFEKYAAKEGDPDQLSKDELKLLIQAEFPSLLKGPNTLDDLFQELDKNGDGEVSFEEFQVLVKKISQ
modifications: human calbindin D9K
Consider B2, for which the “change of blood glucose levels” value in data set [3] (control group, same dose (25 nmole/kg)) is on record as “decreased slightly”. In the data set with diabetic mice, the “blood glucose lowering post glucose and drug administration” value is “did not”. Moreover, the blood circulation time result in data set [4] was “more than 24 hours”. Besides, the “binding to CHO cells” value in the data set on CHO cells is reported as “did not bind to either cell”. In the data set with GLP-1 receptor, the “increase of intracellular cAMP level” value is “could not increase cell intracellular cAMP level”. In addition, the R1 in data set [1] amounted to 6.58 mM^−1S^−1. The “binding to RINm5F cells” value in the data set on RINm5F cells is on record as “did not bind to either cell”.
